What was measured:
[1] = test system: xUpZnK (upstream Sld2-like region + Zn knuckle) (Xenopus laevis); experiment: EMSA; conditions: 20 mM Tris-HCl pH 7.5, 2 mM MgCl2, 50 mM NaCl, 5% glycerol, 1 mM DTT, 5 mM ZnCl2, 0.1 mg/ml BSA, 10 nM probe, 30 min room temperature; 6% native gel in TBE at …
hZnK (RecQ4 Zn knuckle) [2] = molecular target: T1, hZnK (RecQ4 Zn knuckle) (human, UniProt O94761 394-427); experiment: EMSA; conditions: 20 mM Tris-HCl pH 7.5, 2 mM MgCl2, 50 mM NaCl, 5% glycerol, 1 mM DTT, 5 mM ZnCl2, 0.1 mg/ml BSA, 10 nM probe, 30 min room temperature; 6% native gel in TBE at …
T1 chain: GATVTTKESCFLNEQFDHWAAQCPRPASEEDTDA

[3] = molecular target: T2, hUpZnK (upstream Sld2-like region + Zn knuckle) (human) (UniProt O94761); experiment: EMSA; conditions: 20 mM Tris-HCl pH 7.5, 2 mM MgCl2, 50 mM NaCl, 5% glycerol, 1 mM DTT, 5 mM ZnCl2, 0.1 mg/ml BSA, 10 nM probe, 30 min room temperature; 6% native gel in TBE at …
T2 sequence: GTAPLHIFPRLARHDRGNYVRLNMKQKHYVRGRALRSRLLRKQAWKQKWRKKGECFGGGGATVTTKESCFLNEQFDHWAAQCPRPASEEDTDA

[4] = molecular target: T3, hUpZnK (upstream Sld2-like region + Zn knuckle) (human, UniProt O94761 335-427); experiment: EMSA; 20 mM Tris-HCl pH 7.5, 2 mM MgCl2, 50 mM NaCl, 5% glycerol, 1 mM DTT, 5 mM ZnCl2, 0.1 mg/ml BSA, 10 nM probe, 30 min room temperature; 6% native gel in TBE at 4 C; conditions: protein: recombinant; tags: N-terminal 6His-GST (not cleaved); label: 5'-32P on one strand; blunt
T3 sequence: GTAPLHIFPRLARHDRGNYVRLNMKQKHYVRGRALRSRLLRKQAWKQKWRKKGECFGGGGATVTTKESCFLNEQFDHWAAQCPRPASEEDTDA

hZnK (RecQ4 Zn knuckle) [5] = molecular target: T1, hZnK (RecQ4 Zn knuckle); experiment: as above; conditions: protein: recombinant; tags: N-terminal 6His-GST (not cleaved); label: 5'-32P on one strand; blunt
[6] = molecular target: T3, hUpZnK (upstream Sld2-like region + Zn …); experiment: EMSA; 5 mM ZnCl2, 2 mM Mg2+; 20 mM Tris-HCl pH 7.5, 2 mM MgCl2, 50 mM NaCl, 5% glycerol, 1 mM DTT, 5 mM ZnCl2, 0.1 mg/ml BSA, 10 nM probe, 30 min room temperature; 6% native gel in TBE at 4 C; conditions: protein: recombinant, tags: N-terminal 6His-GST (not cleaved), label: 5'-32P on one strand, fork
hZnK (RecQ4 Zn knuckle) [7] = molecular target: T1, hZnK (RecQ4 Zn knuckle); experiment: as above; conditions: protein: recombinant, tags: N-terminal 6His-GST (not cleaved), label: 5'-32P on one strand, fork
[8] = 22 bp plus 15 nt unpaired T arms (3' arm of A1, 5' arm of A2)
[9] = 22 bp plus 15 nt unpaired U arms (3' arm of A3, 5' arm of A4)

Q: Which Kd [1] does the source give for “GTAGTGCATGTACACCACACTCTTTTTTTTTTTTTTT / TTTTTTTTTTTTTTTGAGTGTGGTGTACATGCACTAC [forkDNA (A1+A2)]” here?
A: 14 nM

Q: With ssDNA as the molecule, how does the Kd (hZnK (RecQ4 Zn knuckle) [2]) read?
A: 500 nM

Q: And the Kd [3]?
A: 185 nM

Q: What about the Kd [1] of the same molecule?
A: 25 nM

Q: Which Kd (hZnK (RecQ4 Zn knuckle) [2]) does the source give for ssRNA here?
A: 220 nM

Q: What about the Kd [3] of the same molecule?
A: 11 nM

Q: What about the Kd [1] of the same molecule?
A: 7.3 nM

Q: With “GUAGUGCAUGUACACCACACUCUUUUUUUUUUUUUUU / UUUUUUUUUUUUUUUGAGUGUGGUGUACAUGCACUAC [forkRNA (A3+A4)]” as the molecule, how does the Kd [1] read?
A: 5.4 nM

B1: 22 bp dsDNA (annealed region of fork) (dsDNA)
DNA 1: GTAGTGCATGTACACCACACTC
DNA 2: GAGTGTGGTGTACATGCACTAC
Q: Does B1 bind [4]?
A: no binding

Q: Does B1 bind (hZnK (RecQ4 Zn knuckle) [5])?
A: no binding

B2: forkDNA (A1+A2) (dsDNA)
DNA 1: GTAGTGCATGTACACCACACTCTTTTTTTTTTTTTTT
DNA 2: TTTTTTTTTTTTTTTGAGTGTGGTGTACATGCACTAC
Q: With B2 as the molecule, how does the Kd [6, 8] read?
A: 42 ± 2.8 nM

Q: What about the Kd (hZnK (RecQ4 Zn knuckle) [7]; [8]) of the same molecule?
A: ~270 nM

B3: forkRNA (A3+A4) (dsRNA)
RNA 1: GUAGUGCAUGUACACCACACUCUUUUUUUUUUUUUUU
RNA 2: UUUUUUUUUUUUUUUGAGUGUGGUGUACAUGCACUAC
Q: Which Kd [6, 9] does the source give for B3 here?
A: 13 ± 1.1 nM

Q: And the Kd (hZnK (RecQ4 Zn knuckle) [7]; [9])?
A: ~130 nM

— PMC4757822, “Structural and biochemical characterization of an RNA/DNA binding motif in the N-terminal domain of RecQ4 helicases”
